Results as given in the Human Domainome abundance scans (Beltran et al. 2025).
± gives the uncertainty stated by the source.

B1: Cold shock protein CspB, residues 1 to 66; numbered along this chain, P41016 (parent)
chain: MQRGKVKWFNNEKGYGFIEVEGGSDVFVHFTAIQGEGFKTLEEGQEVSFEIVQGNRGPQAANVVKL

Variants of: B1
Assay: abundance fitness (aPCA) (normalised: wild type 0, dead -1); higher = more abundant; growth selection in yeast, the domain comes from the species named
Details: Bacillus caldolyticus
V52I showed an abundance fitness of -0.018 ± 0.048. For V52P, the abundance fitness was -0.514 ± 0.048. With Q34N the abundance fitness was 0.053 ± 0.11. Work on Q34W yielded an abundance fitness of -0.049 ± 0.043. For Q34D, the abundance fitness was 0.079 ± 0.11. R56S gave an abundance fitness of -0.088 ± 0.038. R56P gave an abundance fitness of -0.062 ± 0.048. For R56A, the abundance fitness was -0.069 ± 0.049. Work on R56V yielded an abundance fitness of -0.1 ± 0.04. In the case of R56T, the abundance fitness is reported as -0.142 ± 0.055. For R56I, the abundance fitness was -0.143 ± 0.093. R56M showed an abundance fitness of -0.068 ± 0.064. For R56G, the abundance fitness was -0.081 ± 0.039. R56K showed an abundance fitness of 0.003 ± 0.057. Work on R56H yielded an abundance fitness of -0.069 ± 0.059. For V64G, the abundance fitness was -0.042 ± 0.035. Variant V64N has an abundance fitness of -0.02 ± 0.087. For V64Q, the abundance fitness was 0.032 ± 0.088. Variant V64K has an abundance fitness of -0.029 ± 0.068. With N55G the abundance fitness was -0.064 ± 0.12. In the case of N55E, the abundance fitness is reported as -0.043 ± 0.31. With N55L the abundance fitness was -0.035 ± 0.11. With N55Q the abundance fitness was -0.042 ± 0.18. Variant N55S has an abundance fitness of 0.049 ± 0.092. N55P showed an abundance fitness of -0.026 ± 0.15. H29Y gave an abundance fitness of -0.149 ± 0.052. Work on H29I yielded an abundance fitness of -0.538 ± 0.16. Variant H29K has an abundance fitness of -0.197 ± 0.13. H29R gave an abundance fitness of -0.281 ± 0.11. In the case of K13F, the abundance fitness is reported as -0.1 ± 0.057. For K13Y, the abundance fitness was -0.03 ± 0.083. Variant K13I has an abundance fitness of -0.065 ± 0.056. K13N gave an abundance fitness of -0.106 ± 0.068. Variant K13S has an abundance fitness of -0.044 ± 0.038. Work on K13W yielded an abundance fitness of -0.089 ± 0.043. In the case of E50K, the abundance fitness is reported as -0.008 ± 0.066. For E50Y, the abundance fitness was 0.005 ± 0.059. E50C gave an abundance fitness of -0.007 ± 0.053. E50F gave an abundance fitness of -0.029 ± 0.051. Variant E50L has an abundance fitness of -0.016 ± 0.035. G44Y showed an abundance fitness of -0.066 ± 0.066. G44T gave an abundance fitness of -0.093 ± 0.052. In the case of G44K, the abundance fitness is reported as -0.041 ± 0.055. Work on G44W yielded an abundance fitness of -0.111 ± 0.033. In the case of G44C, the abundance fitness is reported as 0.005 ± 0.052. Work on G44E yielded an abundance fitness of -0.05 ± 0.054. Variant A32D has an abundance fitness of -0.129 ± 0.055. For A32P, the abundance fitness was -0.507 ± 0.043. For A32L, the abundance fitness was -0.472 ± 0.025. For A32F, the abundance fitness was -0.129 ± 0.058. Work on A32M yielded an abundance fitness of -0.103 ± 0.048. In the case of A32C, the abundance fitness is reported as -0.083 ± 0.048. With A32S the abundance fitness was -0.032 ± 0.034. Variant A32G has an abundance fitness of -0.02 ± 0.037. K65G gave an abundance fitness of 0.023 ± 0.074. In the case of K65V, the abundance fitness is reported as -0.015 ± 0.056. K65H showed an abundance fitness of 0.014 ± 0.06. Variant K65P has an abundance fitness of 0.025 ± 0.064. V6I showed an abundance fitness of -0.017 ± 0.04. V6A gave an abundance fitness of -0.088 ± 0.035. For V6G, the abundance fitness was -0.452 ± 0.026. With V6M the abundance fitness was -0.104 ± 0.059. V6R gave an abundance fitness of -0.971 ± 0.052. Variant G16V has an abundance fitness of -0.847 ± 0.046. G16C showed an abundance fitness of -0.861 ± 0.06. G16K showed an abundance fitness of -1.08 ± 0.15. Variant G16D has an abundance fitness of -0.927 ± 0.1. For G16A, the abundance fitness was -0.696 ± 0.046. For G16I, the abundance fitness was -0.911 ± 0.07. S24F showed an abundance fitness of -0.025 ± 0.058. S24P showed an abundance fitness of 0.012 ± 0.057. For S24N, the abundance fitness was 0.004 ± 0.081. With S24T the abundance fitness was 0.003 ± 0.047. S24L showed an abundance fitness of -0.002 ± 0.033. In the case of S24K, the abundance fitness is reported as 0.015 ± 0.049. A60W gave an abundance fitness of -1 ± 0.14. In the case of A60G, the abundance fitness is reported as -0.171 ± 0.037. Variant A60C has an abundance fitness of -0.115 ± 0.085. With A60L the abundance fitness was -0.636 ± 0.033. Variant A60M has an abundance fitness of -0.752 ± 0.062. With A60T the abundance fitness was -0.487 ± 0.043. Q53S gave an abundance fitness of -0.03 ± 0.036. In the case of Q53P, the abundance fitness is reported as -0.092 ± 0.041. For Q53M, the abundance fitness was 0.01 ± 0.044. Variant Q53K has an abundance fitness of -0.033 ± 0.052. Work on Q53H yielded an abundance fitness of -0.046 ± 0.08. In the case of Q53T, the abundance fitness is reported as 0.018 ± 0.044. Work on Q53W yielded an abundance fitness of 0.007 ± 0.052. Q53A showed an abundance fitness of -0.002 ± 0.045. Work on Q53E yielded an abundance fitness of 0.003 ± 0.052. Q53D gave an abundance fitness of 0.022 ± 0.093. Variant P58C has an abundance fitness of -0.083 ± 0.059. Variant P58F has an abundance fitness of -0.046 ± 0.055. For P58K, the abundance fitness was -0.036 ± 0.052. In the case of K39N, the abundance fitness is reported as -0.077 ± 0.058. With K39S the abundance fitness was -0.072 ± 0.03. K39M gave an abundance fitness of -0.137 ± 0.038. Variant K39V has an abundance fitness of -0.092 ± 0.038. K39H gave an abundance fitness of -0.08 ± 0.064. Variant V20Y has an abundance fitness of -0.001 ± 0.061. Work on V20S yielded an abundance fitness of -0.011 ± 0.035. Variant V20K has an abundance fitness of 0.055 ± 0.056. With V20D the abundance fitness was -0.054 ± 0.054. For V20W, the abundance fitness was 0.056 ± 0.064. V20F showed an abundance fitness of -0.092 ± 0.056. For V20Q, the abundance fitness was 0.046 ± 0.057. With V28W the abundance fitness was -0.675 ± 0.036. For V28G, the abundance fitness was -0.638 ± 0.041. Variant V28T has an abundance fitness of -0.05 ± 0.047. For V28Y, the abundance fitness was -0.27 ± 0.061. V28P showed an abundance fitness of -0.693 ± 0.088. E43Y gave an abundance fitness of -0.017 ± 0.078. E43M showed an abundance fitness of 0.022 ± 0.056. E43R gave an abundance fitness of 0.032 ± 0.039. N11M showed an abundance fitness of -0.042 ± 0.048. Variant N11K has an abundance fitness of -0.047 ± 0.078. Work on N11D yielded an abundance fitness of 0.028 ± 0.06. For A61S, the abundance fitness was 0.008 ± 0.04. Variant A61Y has an abundance fitness of 0.015 ± 0.076. Work on A61I yielded an abundance fitness of 0.01 ± 0.079. A61K gave an abundance fitness of 0.02 ± 0.046. For E46D, the abundance fitness was -0.153 ± 0.084. Variant E46Q has an abundance fitness of -0.012 ± 0.051. E46W gave an abundance fitness of -0.035 ± 0.043. Variant E46P has an abundance fitness of -0.023 ± 0.049. With N10P the abundance fitness was -0.792 ± 0.053. In the case of N10W, the abundance fitness is reported as -0.122 ± 0.037. For N10A, the abundance fitness was -0.047 ± 0.034. Variant T40E has an abundance fitness of -0.027 ± 0.061. In the case of T40Y, the abundance fitness is reported as -0.037 ± 0.051. Variant T40I has an abundance fitness of -0.032 ± 0.044. T40H gave an abundance fitness of -0.064 ± 0.047. In the case of T40A, the abundance fitness is reported as -0.022 ± 0.038. With T40W the abundance fitness was -0.076 ± 0.051. With T40P the abundance fitness was -0.227 ± 0.036. Variant T40R has an abundance fitness of -0.043 ± 0.032. T40Q gave an abundance fitness of -0.041 ± 0.041. For I33E, the abundance fitness was -0.477 ± 0.041. In the case of I33W, the abundance fitness is reported as -0.462 ± 0.052. For I33L, the abundance fitness was -0.082 ± 0.03. F27A gave an abundance fitness of -0.206 ± 0.037. F27Q gave an abundance fitness of -0.208 ± 0.04. In the case of F27R, the abundance fitness is reported as -0.176 ± 0.028. Variant F27L has an abundance fitness of -0.187 ± 0.029. Variant F27H has an abundance fitness of -0.075 ± 0.077. F17D showed an abundance fitness of -0.558 ± 0.072. In the case of F17H, the abundance fitness is reported as -0.151 ± 0.065. With F17I the abundance fitness was -0.128 ± 0.063. For F17A, the abundance fitness was -0.159 ± 0.039. In the case of F17R, the abundance fitness is reported as -0.132 ± 0.032. Variant F17Y has an abundance fitness of -0.192 ± 0.048. Work on F17G yielded an abundance fitness of -0.236 ± 0.037. In the case of F9A, the abundance fitness is reported as -0.303 ± 0.037. For F9T, the abundance fitness was -0.306 ± 0.038. F9E showed an abundance fitness of -0.827 ± 0.088. F9H showed an abundance fitness of -0.567 ± 0.057. With F9R the abundance fitness was -0.583 ± 0.03. F9G showed an abundance fitness of -0.939 ± 0.09. For L66R, the abundance fitness was -0.018 ± 0.042. Work on L66P yielded an abundance fitness of -0.022 ± 0.043. L66C gave an abundance fitness of -0.067 ± 0.084. L66W gave an abundance fitness of 0.004 ± 0.05. For L66D, the abundance fitness was -0.101 ± 0.18. Variant L66I has an abundance fitness of -0.044 ± 0.083. Work on E12G yielded an abundance fitness of -0.02 ± 0.041. E12K showed an abundance fitness of 0.077 ± 0.074. For E12D, the abundance fitness was -0.021 ± 0.049.
